Target: T1, N-terminal FLAG-tagged human CD74 (human, UniProt P04233 1-296)
T1 sequence (looked up): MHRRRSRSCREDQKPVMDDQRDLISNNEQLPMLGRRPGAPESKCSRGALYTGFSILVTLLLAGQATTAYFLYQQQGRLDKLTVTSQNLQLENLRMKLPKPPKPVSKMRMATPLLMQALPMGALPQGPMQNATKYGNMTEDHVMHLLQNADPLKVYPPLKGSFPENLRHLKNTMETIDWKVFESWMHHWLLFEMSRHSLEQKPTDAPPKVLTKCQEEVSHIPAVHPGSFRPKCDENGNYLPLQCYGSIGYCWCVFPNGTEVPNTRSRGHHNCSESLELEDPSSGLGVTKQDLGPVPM
Assay: cell-based or functional assay

B1: recombinant human TIMP-1 (tissue inhibitor of metalloproteinases-1) (natural protein)
chain: not shown
  arrest of MonoMac6 cells on a monolayer of human aortic endothelial cells under flow, TIMP-1 at 200 and 400 ng/mL, optimal concentration 200 ng/mL: 2 fold
